Positions count from the first letter of the chain named.
T1: human BCMA (human, UniProt Q02223 1-184)
T1 construct: whole, on cells; also called hBCMA; TNFRSF17
T1 sequence (looked up): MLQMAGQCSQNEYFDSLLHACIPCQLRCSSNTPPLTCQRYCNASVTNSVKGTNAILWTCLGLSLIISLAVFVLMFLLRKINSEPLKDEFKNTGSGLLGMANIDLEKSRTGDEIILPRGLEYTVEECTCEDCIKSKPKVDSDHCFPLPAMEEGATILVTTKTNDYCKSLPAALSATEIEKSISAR

B1: PR003867 (bispecific antibody, human IgG1, lambda, L234A L235A)
light: QAVVTQEPSLTVSPGGTVTLTCRSSTGAVTTSNYANWVQQKPGQAPRGLIGGTNKRAPWTPARFSGSLLGDKAALTLLGAQPEDEAEYFCALWYSNLWVFGGGTKLTVLGQPKAAPSVTLFPPSSEELQANKATLVCLISDFYPGAVTVAWKADSSPVKAGVETTTPSKQSNNKYAASSYLSLTPEQWKSHRSYSCQVTHEGSTVEKTVAPTECS
heavy: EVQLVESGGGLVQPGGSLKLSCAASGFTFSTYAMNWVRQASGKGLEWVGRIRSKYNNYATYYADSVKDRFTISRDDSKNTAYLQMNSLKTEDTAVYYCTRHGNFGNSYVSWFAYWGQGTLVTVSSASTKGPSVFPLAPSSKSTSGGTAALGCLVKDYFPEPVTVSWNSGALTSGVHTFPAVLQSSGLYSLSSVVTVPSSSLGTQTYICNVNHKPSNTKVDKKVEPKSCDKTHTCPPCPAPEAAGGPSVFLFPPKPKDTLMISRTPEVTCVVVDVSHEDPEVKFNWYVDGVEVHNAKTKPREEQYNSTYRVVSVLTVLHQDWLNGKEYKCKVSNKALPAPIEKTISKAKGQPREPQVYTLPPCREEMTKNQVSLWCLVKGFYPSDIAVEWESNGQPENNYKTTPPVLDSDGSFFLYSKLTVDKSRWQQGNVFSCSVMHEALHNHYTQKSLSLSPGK
chain: EVQLVETGGGLIQPGGSLRLSCAASGFTVSDNYMTWVRQAPGKGLEWVSVIFSGGKTYYADSVKGRFTISRDNAKNTLYLQMNSLRAEDTALYYCARRNYDDTRGTDVFDIWGQGTMVTVSSASEPKSSDKTHTCPPCPAPEAAGGPSVFLFPPKPKDTLMISRTPEVTCVVVDVSHEDPEVKFNWYVDGVEVHNAKTKPREEQYNSTYRVVSVLTVLHQDWLNGKEYKCKVSNKALPAPIEKTISKAKGQPREPQVCTLPPSREEMTKNQVSLSCAVKGFYPSDIAVEWESNGQPENNYKTTPPVLDSDGSFFLVSKLTVDKSRWQQGNVFSCSVMHEALHNHYTQKSLSLSPGK
notes: BCMAxCD3, Fab-Fc-VH (structure 11); CD3 Fab of PR003886, BCMA VH of PR004559; IgG1 knob/hole, LALA
B2: PR003868 (bispecific antibody, human IgG1, lambda, L234A L235A)
light: B1 light
heavy: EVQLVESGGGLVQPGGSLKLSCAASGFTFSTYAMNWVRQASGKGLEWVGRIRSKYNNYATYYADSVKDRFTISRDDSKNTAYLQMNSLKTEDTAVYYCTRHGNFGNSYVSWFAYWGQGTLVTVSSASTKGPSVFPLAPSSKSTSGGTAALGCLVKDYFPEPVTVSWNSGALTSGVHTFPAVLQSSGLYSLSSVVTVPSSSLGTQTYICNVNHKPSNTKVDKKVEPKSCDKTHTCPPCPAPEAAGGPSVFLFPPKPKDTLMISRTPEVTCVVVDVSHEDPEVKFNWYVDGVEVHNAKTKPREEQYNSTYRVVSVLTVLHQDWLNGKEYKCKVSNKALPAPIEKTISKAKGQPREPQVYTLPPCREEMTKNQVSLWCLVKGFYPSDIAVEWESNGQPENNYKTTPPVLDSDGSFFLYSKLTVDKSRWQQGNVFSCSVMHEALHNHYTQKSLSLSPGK
chain: B1 chain with S30Y, Y59V, D102Q
notes: BCMAxCD3, Fab-Fc-VH (structure 11); CD3 Fab of PR003886, BCMA VH of PR004563; IgG1 knob/hole, LALA
B3: PR003869 (bispecific antibody, human IgG1, lambda, L234A L235A)
light: B1 light
heavy: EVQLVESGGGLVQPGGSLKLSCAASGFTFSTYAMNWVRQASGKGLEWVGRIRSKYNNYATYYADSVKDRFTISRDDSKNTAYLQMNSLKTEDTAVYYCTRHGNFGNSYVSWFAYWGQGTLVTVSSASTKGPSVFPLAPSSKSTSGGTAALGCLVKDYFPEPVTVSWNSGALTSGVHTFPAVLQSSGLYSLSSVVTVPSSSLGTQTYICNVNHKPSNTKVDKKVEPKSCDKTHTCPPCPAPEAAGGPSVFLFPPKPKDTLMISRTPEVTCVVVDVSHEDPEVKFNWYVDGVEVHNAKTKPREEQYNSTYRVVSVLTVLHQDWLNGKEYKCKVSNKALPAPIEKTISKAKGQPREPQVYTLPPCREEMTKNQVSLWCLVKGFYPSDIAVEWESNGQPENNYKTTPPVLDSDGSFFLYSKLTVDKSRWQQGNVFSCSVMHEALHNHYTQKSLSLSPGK
chain: B1 chain with N32S, K56R, A60S, D102Q, R104L
notes: BCMAxCD3, Fab-Fc-VH (structure 11); CD3 Fab of PR003886, BCMA VH of PR004564; IgG1 knob/hole, LALA
B4: PR001994 (bispecific antibody, human IgG1, kappa, L234A L235A)
chain 1: EVQLLESGGGLVQPGGSLRLSCAASGFTFNTYAMNWVRQAPGKGLEWVSRIRSKYNNYATYYADSVKDRFTISRDDSKSTLYLQMNSLRAEDTAVYYCVRHGNFGNSYVSWFAYWGQGTLVTVSSRTVAAPSVFIFPPSDEQLKSGTASVVCLLNNFYPREAKVQWKVDNALQSGNSQESVTEQDSKDSTYSLSSTLTLSKADYEKHKVYACEVTHQGLSSPVTKSFNRGEC
chain 2: QAVVTQEPSLTVSPGGTVTLTCRSSTGAVTTSNYANWVQQKPGQAPRGLIGGTNKRAPWTPARFSGSLLGDKAALTLLGAQPEDEAEYFCALWYSNLWVFGGGTKLTVLSSASTKGPSVFPLAPSSKSTSGGTAALGCLVKDYFPEPVTVSWNSGALTSGVHTFPAVLQSSGLYSLSSVVTVPSSSLGTQTYICNVNHKPSNTKVDKKVEPKSCDKTHTCPPCPAPEAAGGPSVFLFPPKPKDTLMISRTPEVTCVVVDVSHEDPEVKFNWYVDGVEVHNAKTKPREEQYNSTYRVVSVLTVLHQDWLNGKEYKCKVSNKALGAPIEKTISKAKGQPREPQVYTLPPCREEMTKNQVSLWCLVKGFYPSDIAVEWESNGQPENNYKTTPPVLDSDGSFFLYSKLTVDKSRWQQGNVFSCSVMHEALHNHYTQKSLSLSPGK
chain 3: B1 chain with K56N, P238G
notes: BCMAxCD3, Fab(cross VH/VL)-Fc-VH (structure 12); CD3 of PR000511, BCMA VH of PR001046; IgG1 knob/hole, AAG
B5: PR003875 (bispecific antibody, human IgG1, lambda, L234A L235A)
light: B1 light
heavy: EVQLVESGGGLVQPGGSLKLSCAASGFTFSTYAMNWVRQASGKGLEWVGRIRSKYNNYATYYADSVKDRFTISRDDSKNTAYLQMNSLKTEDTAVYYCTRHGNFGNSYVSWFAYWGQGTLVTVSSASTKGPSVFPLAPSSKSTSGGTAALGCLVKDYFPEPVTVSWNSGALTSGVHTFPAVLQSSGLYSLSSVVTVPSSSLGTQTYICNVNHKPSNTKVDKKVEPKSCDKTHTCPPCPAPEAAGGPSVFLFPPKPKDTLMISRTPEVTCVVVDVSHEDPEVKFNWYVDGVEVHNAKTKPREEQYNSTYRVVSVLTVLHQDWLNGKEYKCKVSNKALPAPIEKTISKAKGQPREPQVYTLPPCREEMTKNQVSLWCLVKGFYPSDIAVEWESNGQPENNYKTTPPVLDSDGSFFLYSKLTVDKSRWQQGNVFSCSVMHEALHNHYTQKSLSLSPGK
chain: B1 chain with N32A, K56R, D102Q
notes: BCMAxCD3, Fab-Fc-VH (structure 11); CD3 Fab of PR003886, BCMA VH of PR004570; IgG1 knob/hole, LALA
B6: PR003873 (bispecific antibody, human IgG1, lambda, L234A L235A)
light: B1 light
heavy: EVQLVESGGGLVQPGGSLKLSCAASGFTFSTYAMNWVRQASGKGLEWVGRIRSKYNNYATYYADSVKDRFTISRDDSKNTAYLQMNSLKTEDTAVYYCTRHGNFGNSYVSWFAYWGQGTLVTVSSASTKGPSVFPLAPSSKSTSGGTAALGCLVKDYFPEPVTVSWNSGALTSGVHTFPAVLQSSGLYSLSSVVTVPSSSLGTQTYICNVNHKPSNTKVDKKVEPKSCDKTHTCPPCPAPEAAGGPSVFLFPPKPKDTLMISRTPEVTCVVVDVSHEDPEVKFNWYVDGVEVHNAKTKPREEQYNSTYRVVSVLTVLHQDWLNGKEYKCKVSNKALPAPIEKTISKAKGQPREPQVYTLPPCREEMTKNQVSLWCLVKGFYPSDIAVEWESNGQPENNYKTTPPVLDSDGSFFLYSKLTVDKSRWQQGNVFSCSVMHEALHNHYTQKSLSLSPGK
chain: B1 chain with N32A, K56R, Y59V
notes: BCMAxCD3, Fab-Fc-VH (structure 11); CD3 Fab of PR003886, BCMA VH of PR004568; IgG1 knob/hole, LALA
B7: PR003881 (bispecific antibody, human IgG1, lambda, L234A L235A)
light: B1 light
heavy: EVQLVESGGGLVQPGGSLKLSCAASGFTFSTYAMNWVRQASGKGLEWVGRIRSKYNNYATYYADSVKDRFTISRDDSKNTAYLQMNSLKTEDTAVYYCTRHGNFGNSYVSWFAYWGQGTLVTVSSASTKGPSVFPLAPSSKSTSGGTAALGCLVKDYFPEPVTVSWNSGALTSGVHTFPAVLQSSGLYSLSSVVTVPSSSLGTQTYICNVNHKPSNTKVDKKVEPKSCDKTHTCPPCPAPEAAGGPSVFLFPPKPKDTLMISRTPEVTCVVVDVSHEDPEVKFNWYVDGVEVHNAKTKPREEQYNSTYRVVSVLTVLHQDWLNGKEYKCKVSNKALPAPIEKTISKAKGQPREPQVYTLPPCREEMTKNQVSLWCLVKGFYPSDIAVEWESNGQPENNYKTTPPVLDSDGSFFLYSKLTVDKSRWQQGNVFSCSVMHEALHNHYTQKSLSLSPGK
chain: B1 chain with N32S, K56N, D102Q, R104L
notes: BCMAxCD3, Fab-Fc-VH (structure 11); CD3 Fab of PR003886, BCMA VH of PR004561; IgG1 knob/hole, LALA
B8: PR003871 (bispecific antibody, human IgG1, lambda, L234A L235A)
light: B1 light
heavy: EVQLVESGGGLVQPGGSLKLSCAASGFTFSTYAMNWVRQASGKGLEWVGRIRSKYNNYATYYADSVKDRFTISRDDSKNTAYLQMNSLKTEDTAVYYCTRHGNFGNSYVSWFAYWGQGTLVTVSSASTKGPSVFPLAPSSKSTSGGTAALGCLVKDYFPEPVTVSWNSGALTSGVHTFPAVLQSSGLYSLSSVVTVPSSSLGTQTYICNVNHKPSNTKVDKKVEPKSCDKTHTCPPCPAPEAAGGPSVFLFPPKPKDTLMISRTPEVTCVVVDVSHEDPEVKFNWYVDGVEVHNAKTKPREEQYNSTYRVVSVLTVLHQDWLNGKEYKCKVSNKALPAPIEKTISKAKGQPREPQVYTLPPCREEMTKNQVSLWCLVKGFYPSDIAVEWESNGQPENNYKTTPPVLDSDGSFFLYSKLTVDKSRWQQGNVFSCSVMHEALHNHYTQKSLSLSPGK
chain: B1 chain with N32S, K56R, A60S
notes: BCMAxCD3, Fab-Fc-VH (structure 11); CD3 Fab of PR003886, BCMA VH of PR004566; IgG1 knob/hole, LALA
B9: PR003877 (bispecific antibody, human IgG1, lambda, L234A L235A)
light: B1 light
heavy: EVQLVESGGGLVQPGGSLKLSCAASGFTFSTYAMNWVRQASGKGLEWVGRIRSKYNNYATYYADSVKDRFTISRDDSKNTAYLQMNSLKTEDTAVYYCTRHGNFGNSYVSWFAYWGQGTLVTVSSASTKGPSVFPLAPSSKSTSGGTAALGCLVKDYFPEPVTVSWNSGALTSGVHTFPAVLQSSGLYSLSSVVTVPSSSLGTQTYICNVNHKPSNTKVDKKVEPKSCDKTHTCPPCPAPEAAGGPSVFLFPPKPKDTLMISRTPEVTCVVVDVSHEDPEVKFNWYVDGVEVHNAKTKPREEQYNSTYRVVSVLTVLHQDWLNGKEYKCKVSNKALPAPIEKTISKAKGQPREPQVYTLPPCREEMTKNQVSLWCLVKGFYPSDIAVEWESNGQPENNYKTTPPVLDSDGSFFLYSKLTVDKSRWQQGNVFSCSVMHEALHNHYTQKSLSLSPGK
chain: B1 chain with N32S, Y59V
notes: BCMAxCD3, Fab-Fc-VH (structure 11); CD3 Fab of PR003886, BCMA VH of PR004572; IgG1 knob/hole, LALA
B10: PR003878 (bispecific antibody, human IgG1, lambda, L234A L235A)
light: B1 light
heavy: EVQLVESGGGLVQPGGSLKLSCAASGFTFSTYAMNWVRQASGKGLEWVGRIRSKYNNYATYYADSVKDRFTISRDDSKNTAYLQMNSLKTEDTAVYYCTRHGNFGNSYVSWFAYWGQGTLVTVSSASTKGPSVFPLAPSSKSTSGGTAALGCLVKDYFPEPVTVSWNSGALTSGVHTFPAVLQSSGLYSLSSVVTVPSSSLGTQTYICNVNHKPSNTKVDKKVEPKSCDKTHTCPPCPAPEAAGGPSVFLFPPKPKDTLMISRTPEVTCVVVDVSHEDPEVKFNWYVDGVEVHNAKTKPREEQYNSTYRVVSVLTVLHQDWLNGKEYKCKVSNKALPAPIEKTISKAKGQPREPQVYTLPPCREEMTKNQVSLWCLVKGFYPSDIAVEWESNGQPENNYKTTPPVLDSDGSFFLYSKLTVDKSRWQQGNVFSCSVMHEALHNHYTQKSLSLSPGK
chain: B1 chain with N32S
notes: BCMAxCD3, Fab-Fc-VH (structure 11); CD3 Fab of PR003886, BCMA VH of PR004573; IgG1 knob/hole, LALA
B11: PR001991 (bispecific antibody, human IgG1, kappa, L234A L235A)
chain 1: B4 chain 1
chain 2: B4 chain 2
chain 3: EVQLLESGGGLVQPGGSLRLSCAASGFTFSSYAMIWVRQAPGKGLEWVSGISESGGSTYYADSVKGRFTISRDNSKNTLYLQMNSLRAEDTAVYFCVKDLDDILTGYYKDYWGQGTLVTVSSASEPKSSDKTHTCPPCPAPEAAGGPSVFLFPPKPKDTLMISRTPEVTCVVVDVSHEDPEVKFNWYVDGVEVHNAKTKPREEQYNSTYRVVSVLTVLHQDWLNGKEYKCKVSNKALGAPIEKTISKAKGQPREPQVCTLPPSREEMTKNQVSLSCAVKGFYPSDIAVEWESNGQPENNYKTTPPVLDSDGSFFLVSKLTVDKSRWQQGNVFSCSVMHEALHNHYTQKSLSLSPGK
notes: CD3 of PR000511, BCMA VH of PR000940; IgG1 knob/hole, AAG
B12: PR001992 (bispecific antibody, human IgG1, kappa, L234A L235A)
chain 1: B4 chain 1
chain 2: B4 chain 2
chain 3: EVQLVETGGGLIQPGGSLRLSCAASGFPVSSNYMSWVRQAPGKGLEWVSVIFSGGRTYYADSVKGRFTISRDNSKNTLYLQMNSLRAEDTAVYYCARRNWIDGRDAFDIWGQGTMVTVSSASEPKSSDKTHTCPPCPAPEAAGGPSVFLFPPKPKDTLMISRTPEVTCVVVDVSHEDPEVKFNWYVDGVEVHNAKTKPREEQYNSTYRVVSVLTVLHQDWLNGKEYKCKVSNKALGAPIEKTISKAKGQPREPQVCTLPPSREEMTKNQVSLSCAVKGFYPSDIAVEWESNGQPENNYKTTPPVLDSDGSFFLVSKLTVDKSRWQQGNVFSCSVMHEALHNHYTQKSLSLSPGK
notes: BCMAxCD3, Fab(cross VH/VL)-Fc-VH (structure 12); CD3 of PR000511, BCMA VH of PR000943; IgG1 knob/hole, AAG
B13: PR001995 (bispecific antibody, IgG1)
chain 1: EVQLLESGGGLVQPGGSLRLSCAASGFTFNTYAMNWVRQAPGKGLEWVSRIRSKYNNYATYYADSVKDRFTISRDDSKSTLYLQMNSLRAEDTAVYYCVRHGNFGNSYVSWFAYWGQGTLVTVSSASTKGPSVFPLAPSSKSTSGGTAALGCLVKDYFPEPVTVSWNSGALTSGVHTFPAVLQSSGLYSLSSVVTVPSSSLGTQTYICNVNHKPSNTKVDKKVEPKSC
chain 2: QAVVTQEPSLTVSPGGTVTLTCRSSTGAVTTSNYANWVQQKPGQAPRGLIGGTNKRAPWTPARFSGSLLGDKAALTLLGAQPEDEAEYFCALWYSNLWVFGGGTKLTVLGQPKAAPSVTLFPPSSEELQANKATLVCLISDFYPGAVTVAWKADSSPVKAGVETTTPSKQSNNKYAASSYLSLTPEQWKSHRSYSCQVTHEGSTVEKTVAPTECSDKTHTCPPCPAPEAAGGPSVFLFPPKPKDTLMISRTPEVTCVVVDVSHEDPEVKFNWYVDGVEVHNAKTKPREEQYNSTYRVVSVLTVLHQDWLNGKEYKCKVSNKALGAPIEKTISKAKGQPREPQVYTLPPCREEMTKNQVSLWCLVKGFYPSDIAVEWESNGQPENNYKTTPPVLDSDGSFFLYSKLTVDKSRWQQGNVFSCSVMHEALHNHYTQKSLSLSPGK
chain 3: B11 chain 3
notes: as for B11
B14: PR001993 (bispecific antibody, human IgG1, kappa, L234A L235A)
chain 1: B4 chain 1
chain 2: B4 chain 2
chain 3: B12 chain 3 with P28T, S35T, R56S, N99I, W100A, I101V, D102A, R104H, A106V
notes: BCMAxCD3, Fab(cross VH/VL)-Fc-VH (structure 12); CD3 of PR000511, BCMA VH of PR001035; IgG1 knob/hole, AAG

Biological target: T1, human BCMA
Experiment: FACS on NCI-H929 cells
Description: This example is intended to investigate the binding activity of anti-BCMA HCAb antibodies to human and cynomolgus monkey BCMAs. […] Specifically, HEK293T/hBCMA cells and HEK293T/cyno BCMA cells were digested and resuspended in a DMEM complete medium. In addition, NCI-H929 cell suspension was collected. The density of each of the three cells was adjusted to 1×10⁶ cells/mL. […] The cells were incubated at 4° C. for 1 h away from light. Thereafter, the cells in each well were rinsed twice with 100 μL of pre-cooled PBS, and centrifuged at 500 g at 4° C. for 5 min, and then the supernatant was discarded. […] The cells in each well were rinsed twice with 100 μL of pre-cooled PBS, and centrifuged at 500 g at 4° C. for 5 min, and then the supernatant was discarded. Finally, the cells in each well were resuspended in 200 μL of pre-cooled PBS. Fluorescence signal values were read using a BD FACS CANTOII flow cytometer or an ACEA NovoCyte flow cytometer, and the data were processed and analyzed using FlowJo v10 (FlowJo, LLC) software. The data were processed and analyzed by plotting using GraphPad Prism 8 software, and binding curves of the antibodies to target cells, EC₅₀ values and other parameters were obtained through four-parameter nonlinear fitting.

Binder | EC50 [nM] | Maximum MFI
B1 | 4.6 | 8590
B2 | 7.3 | 17400
B3 | 1.7 | 12500
B4 | – | 3430
B5 | 1.2 | 9840
B6 | 1.3 | 10200
B7 | 2.6 | 10300
B8 | 2 | 10600
B9 | 1.7 | 11100
B10 | 1.5 | 9240
B11 | – | 1980
B12 | – | 3210
B13 | – | 2590
B14 | – | 1290

Reference: US20230322953A1 (HARBOUR BIOMED SHANGHAI, published 2023)
